Assay results from US12269859B2, “Synthetic immune receptors and methods of use thereof” (Angeles Therapeutics, Inc., priority 2016, dated 2025).

Test system: target antigen-expressing cell line
Assay: Jurkat NFAT-GFP assay, coculture with target cell lines expressing the respective target antigen (summary Table 10A)
Assay type: cell-based, human
Design: key: The signs +/−, +, 2+ etc. after the name of the cell lines indicate the relative degree of positivity on the Jurkat-NFAT-GFP assay as measured by the % GFP positive cells; +: relative degree of positivity on the Jurkat-NFAT-GFP assay as measured by the % GFP positive cells; 2+: relative degree of positivity on the Jurkat-NFAT-GFP assay as measured by the % GFP positive cells
Conditions: relative % GFP positive cells; for NFAT-GFP ASSAY Positive Cell lines: HL60: SIR-expressing Jurkat-NFAT-GFP cells cocultured with HL60
Method in brief: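 Stable SIR expression in Jurkat-NFAT-GFP cells by lentiviral transfer and puromycin selection; coculture with target cells (E:T approximately 1:2) for 4 to 18 hours; flow cytometric measurement of NFAT-driven GFP; scoring as positive when % GFP-positive cells exceeds that of parental reporter cells.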

Molecule | NFAT-GFP ASSAY Positive Cell lines: HL60 | other results
060717-T02 (protein) MALPVTALLLPLALLLHAARPDIQMTQSPSSLSASVGDRVTINCKASQDINSYLSWFQQKPGKAPKTLIYRANRLVDGVPSRFSGSGSGQDYTLTISSLQPEDFATYYCLQYDEFPLTFGGGTKVEIKLEIQNPDPAVYQLRDSKSSDKSVCLFTDFDSQTNVSQSKDSDVYITDKCVLDMRSMDFKSNSAVAWSNKSDFACANAFNNSIIPEDTFFPSSDVPCDVKLVEKSFETDTNLNFQNLSVIGFRILLLKVAGFNLLMTLRLWSSRAKRSGSGVKQTLNFDLLKLAGDVESNPGPTSMDWIWRILFLVGAATGAHSFEQVQLVQSGAEVKKPGASVKVSCKASGYTFTNYDINWVRQAPGQGLEWIGWIYPGDGSTKYNEKFKAKATLTADTSTSTAYMELRSLRSDDTAVYYCASGYEDAMDYWGQGTTVTVSSTREDLKNVFPPEVAVFEPSKAEIAHTQKATLVCLATGFYPDHVELSWWVNGKEVHSGVCTDPQPLKEQPALNDSRYCLSSRLRVSATFWQNPRNHFRCQVQFYGLSENDEWTQDRAKPVTQIVSAEAWGRADCGITSASYHQGVLSATILYEILLGKATLYAVLVSALVLMAMVKRKDSRGRAKRSGSGATNFSLLKQAGDVEENPGPSRGHMTEYKPTVRLATRDDVPRAVRTLAAAFADYPATRHTVDPDRHIERVTELQELFLTRVGLDIGKVWVADDGAAVAVWTTPESVEAGAVFAEIGPRMAELSGSRLAAQQQMEGLLAPHRPKEPAWFLATVGVSPDHQGKGLGSAVVLPGVEAAERAGVPAFLETSAPRNLPFYERLGFTVTADVEVPEGPRTWCMTRKPGA | HL60 (2+) | –
051116-C05 (protein, Synthetic Immune Receptor (SIR)) MALPVTALLLPLALLLHAARPDIVMTQSPDSLAVSLGERATINCRASKSVSTSGYSFMHWYQQKPGQPPKLLIYLASNLESGVPDRFSGSGSGTDFTLTISSLQAEDVAVYYCQHSREVPWTFGQGTKVEIKRLEDLKNVFPPEVAVFEPSEAEISHTQKATLVCLATGFYPDHVELSWWVNGKEVHSGVSTDPQPLKEQPALNDSRYCLSSRLRVSATFWQNPRNHFRCQVQFYGLSENDEWTQDRAKPVTQIVSAEAWGRADCGFTSESYQQGVLSATILYEILLGKATLYAVLVSALVLMAMVKRKDSRGRAKRSGSGATNFSLLKQAGDVEENPGPTSMDWIWRILFLVGAATGAHSFEQVQLVQSGAEVKKPGASVKVSCKASGYTFTNYGMNWVRQAPGQGLEWMGWINTYTGEPTYADAFKGRFAFSLDTSTSTAYLQINSLRSDDTAVYYCARDYGDYGMDYWGQGTTVTVSSTRIQNPDPAVYQLRDSKSSDKSVCLFTDFDSQTNVSQSKDSDVYITDKTVLDMRSMDFKSNSAVAWSNKSDFACANAFNNSIIPEDTFFPSPESSCDVKLVEKSFETDTNLNFQNLSVIGFRILLLKVAGFNLLMTLRLWSSRAKRSGSGVKQTLNFDLLKLAGDVESNPGPSRGHMTEYKPTVRLATRDDVPRAVRTLAAAFADYPATRHTVDPDRHIERVTELQELFLTRVGLDIGKVWVADDGAAVAVWTTPESVEAGAVFAEIGPRMAELSGSRLAAQQQMEGLLAPHRPKEPAWFLATVGVSPDHQGKGLGSAVVLPGVEAAERAGVPAFLETSAPRNLPFYERLGFTVTADVEVPEGPRTWCMTRKPGA | – | NFAT-GFP ASSAY Positive Cell lines: THP1 (SIR-expressing Jurkat-NFAT-GFP cells cocultured with THP1): THP1 (+/−)
012517-I12 (protein) MALPVTALLLPLALLLHAARPLEGKPIPNPLLGLDSTGSGEDLKNVFPPEVAVFEPSKAEIAHTQKATLVCLATGFYPDHVELSWWVNGKEVHSGVCTDPQPLKEQPALNDSRYCLSSRLRVSATFWQNPRNHFRCQVQFYGLSENDEWTQDRAKPVTQIVSAEAWGRADCGITSASYHQGVLSATILYEILLGKATLYAVLVSALVLMAMVKRKDSRGRAKRSGSGATNFSLLKQAGDVEENPGPTSMALPVTALLLPLALLLHAARPDIQLTQSPSSLSASVGDRVTITCRASQGISSVLAWYQQKPGKAPKLLIYDASSLESGVPSRFSGSGSGTDFTLTISSLQPEDFATYYCQQFNSSITFGQGTKLEIKRTVAAGGGGSGGGGSGGGGSQVQLVQSGAEVKKPGSSVKVSCKASGGTFSDYAISWVRQAPGQGLEWMGRIIPILGVANYAQKFQGRVTITADKSTRTAYMELSSLRSEDTAVYYCARNWADAFDIWGQGTMVTVSSASTREQKLISEEDGSGIQNPDPAVYQLRDSKSSDKSVCLFTDFDSQTNVSQSKDSDVYITDKCVLDMRSMDFKSNSAVAWSNKSDFACANAFNNSIIPEDTFFPSSDVPCDVKLVEKSFETDTNLNFQNLSVIGFRILLLKVAGFNLLMTLRLWSSRAKRSGSGVKQTLNFDLLKLAGDVESNPGPSRGHMTEYKPTVRLATRDDVPRAVRTLAAAFADYPATRHTVDPDRHIERVTELQELFLTRVGLDIGKVWVADDGAAVAVWTTPESVEAGAVFAEIGPRMAELSGSRLAAQQQMEGLLAPHRPKEPAWFLATVGVSPDHQGKGLGSAVVLPGVEAAERAGVPAFLETSAPRNLPFYERLGFTVTADVEVPEGPRTWCMTRKPGA | HL60 (+/−) | –
022217-X03 (protein) MALPVTALLLPLALLLHAARPLEGKPIPNPLLGLDSTGSGEDLKNVFPPEVAVFEPSKAEIAHTQKATLVCLATGFYPDHVELSWWVNGKEVHSGVCTDPQPLKEQPALNDSRYCLSSRLRVSATFWQNPRNHFRCQVQFYGLSENDEWTQDRAKPVTQIVSAEAWGRADCGITSASYHQGVLSATILYEILLGKATLYAVLVSALVLMAMVKRKDSRGRAKRSGSGATNFSLLKQAGDVEENPGPTSMALPVTALLLPLALLLHAARPDIQMTQSPSSLSASVGDRVTINCKASQDINSYLSWFQQKPGKAPKTLIYRANRLVDGVPSRFSGSGSGQDYTLTISSLQPEDFATYYCLQYDEFPLTFGGGTKVEIKGGGGSGGGGSGGGGSQVQLVQSGAEVKKPGASVKVSCKASGYTFTNYDINWVRQAPGQGLEWIGWIYPGDGSTKYNEKFKAKATLTADTSTSTAYMELRSLRSDDTAVYYCASGYEDAMDYWGQGTTVTVSSTREQKLISEEDGSGIQNPDPAVYQLRDSKSSDKSVCLFTDFDSQTNVSQSKDSDVYITDKCVLDMRSMDFKSNSAVAWSNKSDFACANAFNNSIIPEDTFFPSSDVPCDVKLVEKSFETDTNLNFQNLSVIGFRILLLKVAGFNLLMTLRLWSSRAKRSGSGVKQTLNFDLLKLAGDVESNPGPSRGHMTEYKPTVRLATRDDVPRAVRTLAAAFADYPATRHTVDPDRHIERVTELQELFLTRVGLDIGKVWVADDGAAVAVWTTPESVEAGAVFAEIGPRMAELSGSRLAAQQQMEGLLAPHRPKEPAWFLATVGVSPDHQGKGLGSAVVLPGVEAAERAGVPAFLETSAPRNLPFYERLGFTVTADVEVPEGPRTWCMTRKPGA | – | NFAT-GFP ASSAY Positive Cell lines: U266 (SIR-expressing Jurkat-NFAT-GFP cells cocultured with U266): U266 (+/−)
